{
  "source": "paper PMC11533527",
  "about": "“A yeast two-hybrid system to obtain triple-helical ligands from combinatorial random peptide libraries” (The Journal of Biological Chemistry, 2024)",
  "data": [
    {"target": "the molecule itself", "test": "circular dichroism with thermal melting; peptides in PBS, heated at 95 °C, annealed at 4 °C overnight; [θ]225 followed from 4 to 85 °C; chains of one peptide forming a triple helix", "values": [
      {"protein": "YPPGPPGPPGPPGPRGRRGLHGLPGPPGPPGPPGPPG (HELM PEPTIDE1{Y.P.[Hyp].G.P.[Hyp].G.P.[Hyp].G.P.[Hyp].G.P.R.G.R.R.G.L.H.G.L.[Hyp].G.P.[Hyp].G.P.[Hyp].G.P.[Hyp].G.P.[Hyp].G.[am]}$$$$V2.0; N-terminus assumed; SMILES CC(C)C[C@H](NC(=O)CNC(=O)[C@H](CCCNC(=N)N)NC(=O)[C@H](CCCNC(=N)N)NC(=O)CNC(=O)[C@H](CCCNC(=N)N)NC(=O)[C@@H]1CCCN1C(=O)CNC(=O)[C@@H]1C[C@@H](O)CN1C(=O)[C@@H]1CCCN1C(=O)CNC(=O)[C@@H]1C[C@@H](O)CN1C(=O)[C@@H]1CCCN1C(=O)CNC(=O)[C@@H]1C[C@@H](O)CN1C(=O)[C@@H]1CCCN1C(=O)CNC(=O)[C@@H]1C[C@@H](O)CN1C(=O)[C@@H]1CCCN1C(=O)[C@@H](N)Cc1ccc(O)cc1)C(=O)N[C@@H](Cc1c[nH]cn1)C(=O)NCC(=O)N[C@@H](CC(C)C)C(=O)N1C[C@H](O)C[C@H]1C(=O)NCC(=O)N1CCC[C@H]1C(=O)N1C[C@H](O)C[C@H]1C(=O)NCC(=O)N1CCC[C@H]1C(=O)N1C[C@H](O)C[C@H]1C(=O)NCC(=O)N1CCC[C@H]1C(=O)N1C[C@H](O)C[C@H]1C(=O)NCC(=O)N1CCC[C@H]1C(=O)N1C[C@H](O)C[C@H]1C(=O)NCC(N)=O, guest made of the residue most frequent at each position in the selection; Triple helix by CD; annealed before use; source: synthetic peptide (Fmoc solid phase, RP-HPLC purified))", "note": "[synthetic triple-helical peptide pepfreq]", "binding result": "binds"},
      {"protein": "YPPGPPGPPGPPGPVGRRGLSGLPGPPGPPGPPGPPG (HELM PEPTIDE1{Y.P.[Hyp].G.P.[Hyp].G.P.[Hyp].G.P.[Hyp].G.P.V.G.R.R.G.L.S.G.L.[Hyp].G.P.[Hyp].G.P.[Hyp].G.P.[Hyp].G.P.[Hyp].G.[am]}$$$$V2.0; N-terminus assumed; SMILES CC(C)C[C@H](NC(=O)CNC(=O)[C@H](CCCNC(=N)N)NC(=O)[C@H](CCCNC(=N)N)NC(=O)CNC(=O)[C@@H](NC(=O)[C@@H]1CCCN1C(=O)CNC(=O)[C@@H]1C[C@@H](O)CN1C(=O)[C@@H]1CCCN1C(=O)CNC(=O)[C@@H]1C[C@@H](O)CN1C(=O)[C@@H]1CCCN1C(=O)CNC(=O)[C@@H]1C[C@@H](O)CN1C(=O)[C@@H]1CCCN1C(=O)CNC(=O)[C@@H]1C[C@@H](O)CN1C(=O)[C@@H]1CCCN1C(=O)[C@@H](N)Cc1ccc(O)cc1)C(C)C)C(=O)N[C@@H](CO)C(=O)NCC(=O)N[C@@H](CC(C)C)C(=O)N1C[C@H](O)C[C@H]1C(=O)NCC(=O)N1CCC[C@H]1C(=O)N1C[C@H](O)C[C@H]1C(=O)NCC(=O)N1CCC[C@H]1C(=O)N1C[C@H](O)C[C@H]1C(=O)NCC(=O)N1CCC[C@H]1C(=O)N1C[C@H](O)C[C@H]1C(=O)NCC(=O)N1CCC[C@H]1C(=O)N1C[C@H](O)C[C@H]1C(=O)NCC(N)=O, Triple helix by CD; annealed before use; source: synthetic peptide (Fmoc solid phase, RP-HPLC purified))", "note": "[synthetic triple-helical peptide pep11]", "binding result": "binds"},
      {"protein": "YPPGPPGPPGPPGPRGPRGLTGFPGPPGPPGPPGPPG (HELM PEPTIDE1{Y.P.[Hyp].G.P.[Hyp].G.P.[Hyp].G.P.[Hyp].G.P.R.G.P.R.G.L.T.G.F.[Hyp].G.P.[Hyp].G.P.[Hyp].G.P.[Hyp].G.P.[Hyp].G.[am]}$$$$V2.0; N-terminus assumed; SMILES CC(C)C[C@H](NC(=O)CNC(=O)[C@H](CCCNC(=N)N)NC(=O)[C@@H]1CCCN1C(=O)CNC(=O)[C@H](CCCNC(=N)N)NC(=O)[C@@H]1CCCN1C(=O)CNC(=O)[C@@H]1C[C@@H](O)CN1C(=O)[C@@H]1CCCN1C(=O)CNC(=O)[C@@H]1C[C@@H](O)CN1C(=O)[C@@H]1CCCN1C(=O)CNC(=O)[C@@H]1C[C@@H](O)CN1C(=O)[C@@H]1CCCN1C(=O)CNC(=O)[C@@H]1C[C@@H](O)CN1C(=O)[C@@H]1CCCN1C(=O)[C@@H](N)Cc1ccc(O)cc1)C(=O)N[C@H](C(=O)NCC(=O)N[C@@H](Cc1ccccc1)C(=O)N1C[C@H](O)C[C@H]1C(=O)NCC(=O)N1CCC[C@H]1C(=O)N1C[C@H](O)C[C@H]1C(=O)NCC(=O)N1CCC[C@H]1C(=O)N1C[C@H](O)C[C@H]1C(=O)NCC(=O)N1CCC[C@H]1C(=O)N1C[C@H](O)C[C@H]1C(=O)NCC(=O)N1CCC[C@H]1C(=O)N1C[C@H](O)C[C@H]1C(=O)NCC(N)=O)[C@@H](C)O, Triple helix by CD; annealed before use; source: synthetic peptide (Fmoc solid phase, RP-HPLC purified))", "note": "[synthetic triple-helical peptide pep5]", "binding result": "binds"},
      {"protein": "YPPGPPGPPGPPGPRGHRGFLGLPGPPGPPGPPGPPG (HELM PEPTIDE1{Y.P.[Hyp].G.P.[Hyp].G.P.[Hyp].G.P.[Hyp].G.P.R.G.H.R.G.F.L.G.L.[Hyp].G.P.[Hyp].G.P.[Hyp].G.P.[Hyp].G.P.[Hyp].G.[am]}$$$$V2.0; N-terminus assumed; SMILES CC(C)C[C@H](NC(=O)[C@H](Cc1ccccc1)NC(=O)CNC(=O)[C@H](CCCNC(=N)N)NC(=O)[C@H](Cc1c[nH]cn1)NC(=O)CNC(=O)[C@H](CCCNC(=N)N)NC(=O)[C@@H]1CCCN1C(=O)CNC(=O)[C@@H]1C[C@@H](O)CN1C(=O)[C@@H]1CCCN1C(=O)CNC(=O)[C@@H]1C[C@@H](O)CN1C(=O)[C@@H]1CCCN1C(=O)CNC(=O)[C@@H]1C[C@@H](O)CN1C(=O)[C@@H]1CCCN1C(=O)CNC(=O)[C@@H]1C[C@@H](O)CN1C(=O)[C@@H]1CCCN1C(=O)[C@@H](N)Cc1ccc(O)cc1)C(=O)NCC(=O)N[C@@H](CC(C)C)C(=O)N1C[C@H](O)C[C@H]1C(=O)NCC(=O)N1CCC[C@H]1C(=O)N1C[C@H](O)C[C@H]1C(=O)NCC(=O)N1CCC[C@H]1C(=O)N1C[C@H](O)C[C@H]1C(=O)NCC(=O)N1CCC[C@H]1C(=O)N1C[C@H](O)C[C@H]1C(=O)NCC(=O)N1CCC[C@H]1C(=O)N1C[C@H](O)C[C@H]1C(=O)NCC(N)=O, Triple helix by CD; annealed before use; source: synthetic peptide (Fmoc solid phase, RP-HPLC purified))", "note": "[synthetic triple-helical peptide pep3]", "binding result": "binds"},
      {"protein": "YPPGPPGPPGPPGPRGPRGFTGFPGPPGPPGPPGPPG (HELM PEPTIDE1{Y.P.[Hyp].G.P.[Hyp].G.P.[Hyp].G.P.[Hyp].G.P.R.G.P.R.G.F.T.G.F.[Hyp].G.P.[Hyp].G.P.[Hyp].G.P.[Hyp].G.P.[Hyp].G.[am]}$$$$V2.0; N-terminus assumed; SMILES C[C@@H](O)[C@H](NC(=O)[C@H](Cc1ccccc1)NC(=O)CNC(=O)[C@H](CCCNC(=N)N)NC(=O)[C@@H]1CCCN1C(=O)CNC(=O)[C@H](CCCNC(=N)N)NC(=O)[C@@H]1CCCN1C(=O)CNC(=O)[C@@H]1C[C@@H](O)CN1C(=O)[C@@H]1CCCN1C(=O)CNC(=O)[C@@H]1C[C@@H](O)CN1C(=O)[C@@H]1CCCN1C(=O)CNC(=O)[C@@H]1C[C@@H](O)CN1C(=O)[C@@H]1CCCN1C(=O)CNC(=O)[C@@H]1C[C@@H](O)CN1C(=O)[C@@H]1CCCN1C(=O)[C@@H](N)Cc1ccc(O)cc1)C(=O)NCC(=O)N[C@@H](Cc1ccccc1)C(=O)N1C[C@H](O)C[C@H]1C(=O)NCC(=O)N1CCC[C@H]1C(=O)N1C[C@H](O)C[C@H]1C(=O)NCC(=O)N1CCC[C@H]1C(=O)N1C[C@H](O)C[C@H]1C(=O)NCC(=O)N1CCC[C@H]1C(=O)N1C[C@H](O)C[C@H]1C(=O)NCC(=O)N1CCC[C@H]1C(=O)N1C[C@H](O)C[C@H]1C(=O)NCC(N)=O, Triple helix by CD; annealed before use; source: synthetic peptide (Fmoc solid phase, RP-HPLC purified))", "note": "[synthetic triple-helical peptide pep10]", "binding result": "binds"},
      {"protein": "synthetic triple-helical peptide pepα1(I)930-938: H-Tyr-(Pro-Hyp-Gly)4-Pro-Lys-Gly-His-Arg-Gly-Phe-Ser-Gly-Leu-Hyp-Gly-(Pro-Hyp-Gly)4-NH2 (4-hydroxyproline (Hyp, written P in letters) at positions 3, 6, 9, 12, 24, 27, 30, 33, 36 of the chain (counted from the printed formula); C-terminal amide, Tyr-(Pro-Hyp-Gly)4-Pro host; Hyp-Gly-(Pro-Hyp-Gly)4 host; Triple helix by CD; annealed before use; source: synthetic peptide (Fmoc solid phase, RP-HPLC purified)) not shown", "binding result": "binds"},
      {"protein": "YPPGPPGPPGPPGPNGRRGFMGMPGPPGPPGPPGPPG (HELM PEPTIDE1{Y.P.[Hyp].G.P.[Hyp].G.P.[Hyp].G.P.[Hyp].G.P.N.G.R.R.G.F.M.G.M.[Hyp].G.P.[Hyp].G.P.[Hyp].G.P.[Hyp].G.P.[Hyp].G.[am]}$$$$V2.0; N-terminus assumed; SMILES CSCC[C@H](NC(=O)[C@H](Cc1ccccc1)NC(=O)CNC(=O)[C@H](CCCNC(=N)N)NC(=O)[C@H](CCCNC(=N)N)NC(=O)CNC(=O)[C@H](CC(N)=O)NC(=O)[C@@H]1CCCN1C(=O)CNC(=O)[C@@H]1C[C@@H](O)CN1C(=O)[C@@H]1CCCN1C(=O)CNC(=O)[C@@H]1C[C@@H](O)CN1C(=O)[C@@H]1CCCN1C(=O)CNC(=O)[C@@H]1C[C@@H](O)CN1C(=O)[C@@H]1CCCN1C(=O)CNC(=O)[C@@H]1C[C@@H](O)CN1C(=O)[C@@H]1CCCN1C(=O)[C@@H](N)Cc1ccc(O)cc1)C(=O)NCC(=O)N[C@@H](CCSC)C(=O)N1C[C@H](O)C[C@H]1C(=O)NCC(=O)N1CCC[C@H]1C(=O)N1C[C@H](O)C[C@H]1C(=O)NCC(=O)N1CCC[C@H]1C(=O)N1C[C@H](O)C[C@H]1C(=O)NCC(=O)N1CCC[C@H]1C(=O)N1C[C@H](O)C[C@H]1C(=O)NCC(=O)N1CCC[C@H]1C(=O)N1C[C@H](O)C[C@H]1C(=O)NCC(N)=O, Triple helix by CD; annealed before use; source: synthetic peptide (Fmoc solid phase, RP-HPLC purified))", "note": "[synthetic triple-helical peptide pep6]", "binding result": "binds"},
      {"protein": "YPPGPPGPPGPPGPKGRRGFHGLPGPPGPPGPPGPPG (HELM PEPTIDE1{Y.P.[Hyp].G.P.[Hyp].G.P.[Hyp].G.P.[Hyp].G.P.K.G.R.R.G.F.H.G.L.[Hyp].G.P.[Hyp].G.P.[Hyp].G.P.[Hyp].G.P.[Hyp].G.[am]}$$$$V2.0; N-terminus assumed; SMILES CC(C)C[C@H](NC(=O)CNC(=O)[C@H](Cc1c[nH]cn1)NC(=O)[C@H](Cc1ccccc1)NC(=O)CNC(=O)[C@H](CCCNC(=N)N)NC(=O)[C@H](CCCNC(=N)N)NC(=O)CNC(=O)[C@H](CCCCN)NC(=O)[C@@H]1CCCN1C(=O)CNC(=O)[C@@H]1C[C@@H](O)CN1C(=O)[C@@H]1CCCN1C(=O)CNC(=O)[C@@H]1C[C@@H](O)CN1C(=O)[C@@H]1CCCN1C(=O)CNC(=O)[C@@H]1C[C@@H](O)CN1C(=O)[C@@H]1CCCN1C(=O)CNC(=O)[C@@H]1C[C@@H](O)CN1C(=O)[C@@H]1CCCN1C(=O)[C@@H](N)Cc1ccc(O)cc1)C(=O)N1C[C@H](O)C[C@H]1C(=O)NCC(=O)N1CCC[C@H]1C(=O)N1C[C@H](O)C[C@H]1C(=O)NCC(=O)N1CCC[C@H]1C(=O)N1C[C@H](O)C[C@H]1C(=O)NCC(=O)N1CCC[C@H]1C(=O)N1C[C@H](O)C[C@H]1C(=O)NCC(=O)N1CCC[C@H]1C(=O)N1C[C@H](O)C[C@H]1C(=O)NCC(N)=O, Triple helix by CD; annealed before use; source: synthetic peptide (Fmoc solid phase, RP-HPLC purified))", "note": "[synthetic triple-helical peptide pep7]", "binding result": "binds"}
    ]}
  ]
}
